Test results: article PMC3377668, “Detection of Crosslinks within and between Proteins by LC-MALDI-TOFTOF and the Software FINDX to Reduce the MSMS-Data to Acquire for Validation” (PLoS ONE, 2012)

Molecular target: T1, Clp-protease subunit R (ClpR) from Synechococcus sp. (Synechococcus sp., UniProt Q9L4P4 1-228)
T1 construct: ClpR, Clp-protease subunit R, Synechococcus sp., UniProtKB Q9L4P4; Stood in the crosslinked ClpCP3R complex; also called R-subunit; source: part of the Synechococcus ClpCP3R complex, obtained as described previously according to [20]
T1 sequence (looked up): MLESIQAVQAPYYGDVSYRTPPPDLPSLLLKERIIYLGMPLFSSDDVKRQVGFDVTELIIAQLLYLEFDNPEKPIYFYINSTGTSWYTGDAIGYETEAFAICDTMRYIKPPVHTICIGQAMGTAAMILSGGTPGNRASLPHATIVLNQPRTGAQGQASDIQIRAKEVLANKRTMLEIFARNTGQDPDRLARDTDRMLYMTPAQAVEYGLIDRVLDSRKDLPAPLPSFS
Experiment: cross-linking; Clp-protease multisubunit complex (ClpCP3R) crosslinked with H12/D12 BS3; tryptic digest separated into 192 fractions, LC-MALDI-TOF/TOF, FINDX (7 ppm, intensity parameter 0.22), MSMS validation
Details: both partners purified

- binding result: binds
B1: Clp-protease subunit P3 (ClpP3) from Synechococcus sp. (natural protein, UniProt Q9L4P3 1-199, looked up)
chain: MPIGVPSVPYRLPGSSFERWIDIYNRLAMERIIFLGQEVTDGLANSIVAQLLYLDSEDSSKPIYLYINSPGGSVTAGMAIYDTMQYIKSPVITICLGLAASMGAFLLCAGSKGKRLALPHSRIMIHQPLGGTGRRQASDIEIEAKEILRIKKLLNQIMADRTGQPLEKIEKDTDRDYFMSAEEAREYGLIDQVIAERPV
notes: ClpP3, Clp-protease subunit P, Synechococcus sp., UniProtKB Q9L4P3; Stood in the crosslinked ClpCP3R complex (P3 and R in a proteolytic core of two heptameric rings, ClpC in a hexameric ring); also called P3-subunit; source: part of the Synechococcus ClpCP3R complex, obtained as described previously according to [20]; not shown: His6, C-terminal, kept
